Assay results from the supplement of paper PMC12042874.
± gives the uncertainty stated by the source.

Test: amyloid nucleation score (Sup35N fusion, yeast selection) (log enrichment); library NNK3; higher = more nucleation; inactive = no reads after selection
In short: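 Peptides of 20 random codons fused to Sup35N were expressed in psi-negative yeast, induced 24 hours with 100 μM copper sulfate, then grown 7 days at 30°C on medium lacking adenine and uracil. Input and output plasmid inserts were Illumina-sequenced. Nucleation score is the DiMSum log enrichment of output over input reads, centred on the mode score of non-aggregating sequences, excluding sequences with under 100 input reads. Random libraries had three technical output replicates.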

Substance	amyloid nucleation score
NHYLT	inactive
FNFVYV	0.062 ± 0.88
FSCPRVSIFGLCSNCMYQWW	2.43 ± 0.057
HLVMGWLTKPSSIFGLEDKR	1.13 ± 0.11
AEVPSFECFTVPVFLRSIAV	inactive
VGSLIGMNYGF	inactive
DVANKIVSKGRS	inactive
VDKLFCWGLYGLATVDNRVY	inactive
LLKLNS	inactive
ESMISNGFWGLRARCSVINM	inactive
CTSLRLESPDFFSKRERSSN	inactive
LWSCPTDFRMCSVWLTLRVS	inactive
RFAVTSVMLTSETRDGFDHA	inactive
PGITNLWLEMSHV	inactive
YLNSDRSYEMDTFRFGYLLY	inactive
VLIITLMYMYATFLSFYKPQ	2.59 ± 0.085
FGGLRTATL	inactive
IICGSCPRR	inactive
HFVLWHLKGSQFGGSVAVIQ	inactive
FHYVCFTFDSKFVGKLSYGS	1.61 ± 0.1
MGNLVNSNVGSTLSKKIRND	0.351 ± 0.35
GTIYMFENGSSVS	inactive
LPVPGTPLKKAVGGIIRGCG	inactive

Substance	amyloid nucleation score
SSDRLYFINGRMRNRFARFC	inactive
VKTINSWIRWVTLRILQVVS	inactive
CFFEVKRSHSIRVFRIGCGV	inactive
LKSSPFNYSVGIS	inactive
ANSTAAVKSLGRV	inactive
WQRNFEWIYDPLRAKSWNSI	-0.558 ± 0.76
RNANSNWSRPVLNAWSLNEV	inactive
ITKQEVLSLTIFRMAEGVQW	0.382 ± 0.4
LCMFPLIWFILLFRFFKLWG	inactive
FGQYSGVSCNWTPGCPAPCF	inactive
CIAYNMVSDYVSIGFNAGDM	inactive
KNDSVKSKCVSIGVPVPLLV	inactive
IGRNSSKIFLFFCSCMRMFS	2.95 ± 0.077
FTNLYMPTRERHCRGSHMW	inactive
LSNPTSRVLSYRTNM	inactive
YAWGYSSWETRN	inactive
RMGIYCGDRFQ	inactive
RIPTLIFRLILIMFHDFDFQ	inactive
CYTMSNVRVPWKRGICYCGL	inactive
CSSGYIQKMVSRYMSYGYHF	inactive
RWSVLILNPPISKKHPDDK	0.345 ± 0.69
SILDWYVSVVRRGA	inactive
LYEGD	inactive

Substance	amyloid nucleation score
SMGSPVNVIWTSSYS	inactive
SPDGIGTMRGNFLGTPWRCR	inactive
WNMVYFLLQFSIDASLGT	inactive
RSYARRSTGILAR	-0.112 ± 0.75
GDMQMW	inactive
FFCMWDRMIALWSHFCNLDG	inactive
NGILKPETVRQI	inactive
GSFTASFDGFQGSIMVERGG	inactive
CRSGCAVYS	inactive
ISRVCSNFLGLDVTFLMLLT	1.42 ± 0.14
LVAGSTRTSLLVLRALGAWL	inactive
GTQVYTGGRVYERLRVMSCV	inactive
VCMVEDFCCLPFDMLLYWLT	inactive
ICWKRCHG	inactive
FWVNVCVFMGRVW	inactive
RRELWRLRTVVCTMNLLYYA	inactive
WRFGRVFDWGRLHLGVDRCR	inactive
VFCVRRSLQNLRNSGNDSHR	inactive
NIGRNMLRCVNLTT	inactive
TSGQSVVSSRTHCVIRCRRR	inactive
YFYSHRYI	inactive
MYCSTYTVFYYAGIRVLCGD	1.28 ± 0.14
LVEIIHVSLVFLP	inactive

Substance	amyloid nucleation score
TTFFGCSFGLCRAIIGLDNV	1.34 ± 0.076
CCMVVTQYYARMMVWGNRPY	inactive
PCLFTSSVSIFYNDALLVLS	inactive
VRMCVIVQVKVCARDMTVST	inactive
VDWWSALEDYYSLELLMEVK	inactive
NCLLTFDQNYTRGIPAKI	inactive
TCAVKMVRSWCNIPINSFQA	inactive
YSQLRARMKCVYLGY	inactive
TSNRGDWVHFTVYSFYESTM	inactive
LDKAHHHLETAKLLLAWGVI	inactive
RCVSFTLKIGLIFKQTPSCR	inactive
VSMVQVTIRKRAS	inactive
YWNFYSSNLYWT	inactive
GRLLMFASDLLNSPRMCWTE	-0.687 ± 1.8
YDMSDMNCRRIW	inactive
VYRLFRMYILTGGLNVNGGR	inactive
NLKKARSTSFIDEPECRPRP	-0.406 ± 1.1
QISFGLLINLSVIFSGLDLV	0.801 ± 0.27
YFPGGTLDY	inactive
RQIVKPASQVILCRCLCTGA	1.04 ± 0.1
WVWRSNSPGAEKWTLLTKTL	inactive
SFVSSMCVTGEKVEGSRPCC	inactive
DRYCLWVRCLVDAFMRPVVG	inactive

Substance	amyloid nucleation score
SLSSRGLYLSKDLMPILNYR	inactive
FANKTRYSPWSCNPVFWYDR	inactive
WAVCKAHDVSVDTDYYSSTG	0.302 ± 0.45
IAPYGRGWKDYLIDSEHVRT	inactive
GATFVRILSRLIRLSFI	inactive
SLLFFRWDIWTVASGYD	inactive
YSMDTPCFINSGVFSADPNL	inactive
FILYMCKCS	inactive
SSDFTSWDVREILGRAVVLC	inactive
QLQSYRQGTFGDQYSPSVHS	inactive
MQAQRKYMSMRNRYQVAKVE	inactive
RCFRTLIRENMKLANTSDMT	inactive
GLSRCSPWKASSDDRRRLSD	inactive
YVKGRSETCPKDRIKGVRSD	inactive
MLHFG	inactive
DCIYRDVCFNFTYMCKVNAQ	inactive
HHLSTRINCIDRVRSPNLRL	-0.708 ± 1.4
VDHRGALVEKFMNNSIWTSF	0.122 ± 0.98
HIYRYLMS	inactive
YGCRINLIDRYALKYCVTED	inactive
FVILFVVFNYINALCDCNID	0.377 ± 0.27
TLSYVCTNAGGSVFMTCLFF	-0.104 ± 0.58
SYTKDVV	inactive

Substance	amyloid nucleation score
AGWNMLVMTLCSTLFSQY	inactive
KEFCVRPLYRFSVRMNIC	0.035 ± 0.62
IRNSVLWGHFIR	inactive
NRMRPIDNLGHISMFGVLGG	inactive
GDNSLTYMSAM	inactive
CYCVGHAVLCRPEHLCSVRL	inactive
IITTHSFQTDWHISEYQDIC	inactive
MSTMVYRASRCGRLG	0.399 ± 0.53
SKCDMCTYTQRFNDL	inactive
TEDGPYTIWH	inactive
ADNTDMKMTEVGTHHNGNQN	inactive
PKAGALQQFMMRHSSHFQLS	inactive
FTNYRSRGNMVRGGPCRPSY	inactive
DGMNSPRMEIRDRDRSAYIL	inactive
TSLSTSKVLDASLRMDQLST	inactive
PPLYSRYLSFNGMTKVPWIC	inactive
HTGNLYHLSWCV	inactive
LHYKCNDVHQNGMLELCYLN	inactive
LQRIGIYMTTFCENRCPDAE	inactive
VSETMWMSFLTVSFELRVDG	inactive
HSRTMVLMCIAMIRVLGYGF	inactive
TLSHIGGIEGFINGCLSVGP	inactive
LMCDWGVY	-0.175 ± 0.85

Substance	amyloid nucleation score
NGLPARRV	inactive
VLIKQECSQRFFDSNLNWHF	0.688 ± 0.33
TRSGST	inactive
SVRTSAYYKFQRTERVSMCM	inactive
WSDLRI	inactive
INPFLHMVTSLIVEFRVLNC	inactive
AIIDYFMM	inactive
DSLSFGVVIFLYFKPGEFLY	inactive
CNMGYSIFVFILNLSPV	1.99 ± 0.09
TSFGYNLGLRRCSYRMTAEW	1.44 ± 0.13
FVGIIGWMIYVEGVY	inactive
GGLTSYDQ	inactive
KYLLLKRNARQRLHTVCHQA	inactive
FRVNKYNISFLVRQSGIWLA	inactive
RFPEAVPNKWSGPPTFNPHE	inactive
RSLAEGFYGAVPEGSVRFRN	inactive
RFILDVMRVAAGFMVSK	inactive
LLCLLQYLWPRRDSYYACLR	0.782 ± 0.18
DLMTMSYRLMIIFLVDTWPR	inactive
